Experimental data from the DeepSol protein solubility set.

Assay: soluble on expression in E. coli; label from the status in PepcDB or PDB records
With “GPGSMTLYSIYIFNRYGDNIFYKEWNRTTAPQEGEAGLVAGFIYTLQHFSSQLSSSGEGGFYAVRTPLYKLHYNETMTGYRVALLSDKDLKTDVVQNILRKMFSDVFQRYVTKDPNYSHTQGRVITSTAFGEALDQFFHSQKIL” the “soluble on expression in E. coli” value was “not soluble”.
In the case of “GRSDTYDVLANRIENAVEQHRTEQRFWNALSWYQRLVEQELAGVCIIQDGTFVYVNQKLADIFSYDQSELIDESPALLTAEGDGDRLPESLRAADSDELDTFHSKFEGRQANGETRTIEVSGGSIEYDGEPAWIGVLRD”, the “soluble on expression in E. coli” value is reported as “not soluble”.
In the case of “SNAMRNKNMSTIYQTSATASAGRNGVVSTEDKLLELNLSYPKEMGGSGTATNPEQLFAVGYAACFSNAILHVAREAKVALKEAPVTATVGIGPNGQGGFALSVALAAHIALEDEQARQLVTVAHQVCPYSNAVRGNIDVQVSVNGLAL”, the “soluble on expression in E. coli” value is reported as “soluble”.
For “MALLHGGQLQQVAKQYNIPPSDWIDVSTGIAPISYPIPIIPLSVWQQLPQQNPDLIAAAQQYYQCSQLMITNGSQAIIKALPALYRQKNAESQDVYLPERGYKEHAHAWKNAGYNLHFYQEFLPEMSEILPNSVLVIINPNNPTGQFFNGQVIAQYQERLKLINGLLVLDEAFIDVVPGNQSYYNQLENSHSLVLRSFGKFFGLAGIRIGFLVANGYWCGAFKELLGPWQINGPAQLIAQHALQDTSWQTRQKDTLTRLRIAQEHMLRQAFPQIILREINGCNLFLTLSFHQQDTAKKLYHLLCQQGVYCRLADEQDTLRFGITTEELLERLTLACRQAYQQLT”, the “soluble on expression in E. coli” value was “not soluble”.
In the case of “FSSREQPQQNEGQIQKLNALKPDNRIESEGGLIETWNPNNKPFQCAGVALSRCTLNRNALRRPSYTNGPQEIYIQQGKGIFGMIYPGCPSTFEEPQQPQQRGQSSRPQDRHQKIYNFREGDLIAVPTGVAWWMYNNEDTPVVAVSIIDTNSLENQLDQMPRRFYLAGNQEQEFLKYQQEQGGHQSQKGKHQQEEENEGGSILSGFTLEFLEHAFSVDKQIAKNLQGENEGEDKGAIVTVKGGLSVIKPPTDEQQQRPQEEEEEEEDEKPQCKGKDKHCQRPRGSQSKSRRNGIDETICTMRLRHNIGQTSSPDIYNPQAGSVTTATSLDFPALSWLRLSAEFGSLRKNAMFVPHYNLNANSIIYALNGRALIQVVNCNGERVFDGELQEGRVLIVPQNFVVAARSQSDNFEYVSFKTNDTPMIGTLAGANSLLNALPEEVIQHTFNLKSQQARQIKNNNPFKFLVPPQESQKRAVA”, the “soluble on expression in E. coli” value is reported as “soluble”.
In the case of “MRERVCVSHCVLQRTVVCRPRTFVRERIRTQFKLVSLFITMPKSLRKRFVLVSIDDNIEQINAARKLRRYLTNNHLNHIFSSTPEEMKEYLDKLDSGTFNFRETAEEQKSVDPFSEANQPAIQMSSNQEILEKWARGTFAENSDALKLLLEPTNIEEDAVLDDHESENIVNNIPQLFMVNSMDAETPNDSIIVENGKEDQLDMAYCSLCKHEVETGRNRNTKIRKQTEHVLDAHPESEFLNVDIAKRYECVHCLRTLPVSKSPCEHISEHHDKTHVEIEFRDLWSNEQVSTFNSVMEKCFLRHLPVPRSRRIRNGNTWYLSEKASYRIVRGGEIIHISTVADKSKTDNGKESKQSRLDNSERGKPTRSMDSDYDIFDNQDETDSEEGARSESIDTGNKVSESEPGSLQSVIDLE”, the “soluble on expression in E. coli” value is reported as “not soluble”.
With “MSEKTMRVQDYPLATRCPEHILTPTGKPLTDITLEKVLSGEVGPQDVRISRQTLEYQAQIAEQMQRHAVARNFRRAAELIAIPDERILAIYNALRPFRSSQAELLAIADELEHTWHATVNAAFVRESAEVYQQRHKLRKGS” the “soluble on expression in E. coli” value was “soluble”.
With “MGSDKIHHHHHHMKGFDAKFRDFPDYIVGITKEIWEDRGIATLHEYYAEDIVVRSPASVVTGNQGVIAATMATLAEFPDRVLLGEDVIWSGTPEDGMLSSHRIISQATHAGDGVYGAATGKRLEYRILADCHAKNNAIDDEWLIRDQTAIVTQLGWTPRDYAADLIMREGGPEACVKPLTPDTDQPGPYKGRGNDNPWGERLADVLTRIMGADMAAIPEVYDRACHLEYPGHVTAHGPAEADRFWMSLRAAFPNAAFTIDHQIGREDDHMPPRAAIRWSLHGTHEGWGGFGQPTGAEVYIVGITHAEFGQVGTAEPKLRREYTLFDETSVWKQILLHEAAK” the “soluble on expression in E. coli” value was “not soluble”.
With “MAGDPMVRLNVKPTRMELNNLKERLTTAERGHKLLKDKRDELMRRFISLIRENNQLRKEVESYLIDNLKSFAVAKSLKNSQMVEELFSIPSKEIELFVEKENIMSVTVPRMHMNITSQNENSEYSYLSSNSEMDDVFATMNSLIYKLLRLAEVEKTCQLMADEIEKTRRRVNGLEYSIIPNLSETIHYIELKLEEAERANLVRIMKVKLEHHHHHH” the “soluble on expression in E. coli” value was “not soluble”.
For “MVARISVGKNLYGALAYNQNKVDEGGAKVLSAHLLRYPEDGRFRPDESVRQFLEWMPNHYRTEKPVIHISLNPHPDDVLTDGQLAEIGREYMQRLGYGNQPYLVFKHEDIGRHHIHIVSLRVDSEGRKVSDKFEYRRSKEITELLEQKYGLHPAEGRKKGEEWQLKPVDVAKGDIKRQIACTLKPLLELYSFRTMGELRALLSLYNIGVEEVKGEIGGRTYHGILYTALDGNGETAATPIKSSRLGRTAGAQQLDRKMRESAARIKSAPCRERLRPLVADALRQSVDERDFRDRLAKEQIDLVLRRNGTDRIYGVTFIDHRSRTVLNGSRLGKEFSANMLNGHFQEQPPNSLSPLLPPVPSAVASGNGEKIPGGLLSDMEPELNYVPRYPKLLKPDKKKRRRRYGRQD”, the “soluble on expression in E. coli” value was “not soluble”.
In the case of “MAIEHFSTLKQHLSSQIIGQEALVENLLIALLANGHLIVEGPPGLAKTRAVNALAQGLEADFHRIQFTPDLLPADLTGTDIYRPEDGTFVFQPGPLFQNLVLADEINRAPAKVQSALLEAMAEGQITVGRKTYDLPELFLVMATQNPIEQEGTYPLPEAQLDRFLMHIEIGYPDAESELAILKLNRGEALRSNANHGNDSSEKETSTKENSLRTLSQSEIFSAREQVLNIHMAPSLENYIVDLIIATRQPEKYDDKLSTWLAFGASPRATIALDRCARARAWLHNRDFVSPEDIQAVFHNALRHRILLSYQAEAEGITANQVLDYILTQVAVALEHHHHHH”, the “soluble on expression in E. coli” value is reported as “soluble”.
For “MIAITGATGQLGHYIIESLMKTVPASQIVAIVRNPAKAQALAAQGITVRQADYSDEAALTSALQGVEKLLLISSSEVGQRAPQHRNVINAAKAAGVKFIAYTSLLHADTSPLGLADEHIETEKMLADSGIVYTLLRNGWYSENYLASAPAALEHGVFIGAAGDGKIASATRADYATAAARVISEAGHEGKVYELAGDSAWTLTQLAAELTKQSGKQVTYQNLSEADFAAALKSVGLPDGLADMLADSDVGASKGGLFDNSKTLSKLIGCPTTTLAESVSHLFNVNN”, the “soluble on expression in E. coli” value was “not soluble”.
With “MSLGILEDKKRARIFYRYFSKIYDYINPIFYSDKMRKTVVDMADIDAESLVLEVGCGTGFTTEEIVRRIGEERVVAVDITPEQMMKARAKMGGVNYFLGDAENLPFKDNSFDAAISAGSIEYWPNPQRGIEEMARVTKSGGKVVILAPRKPDNFAVRKFAESIMLFPSTQQCVYWFMKAGLEDIRFVETGPYRFWSKLVVIISGTVPEGHHHHHH” the “soluble on expression in E. coli” value was “soluble”.
For “MAVVAHTEEDVKLLARLMRAEAEGDGRLGMLMVGNVGVNRVIADCLDFRGIRSIRQMVFQSPGGFEAVQKGYFYQRAREVDIGLARQVLRGWRYHPATNALWFFKPPEGQECPPQWFNQWNVGRYKSHCFFAPTPSDCPRVY”, the “soluble on expression in E. coli” value was “not soluble”.
In the case of “MGSDKIHHHHHHSDLNSNIKDDPYSGGKAPLGIGLLAESPSPESAYPNDTVVFKAKGMLNWCDPQSGRYDFKFYISDEETKIVTATDTTITVKVPGNLSSGTAYIVLKEQVFYGPRLTVLGNIKIDQSYGFKGTSGPIYDCAEHYSKARVYYPVGDYMQAYYNENSSQSFSCISMVLTDGSVSGKWVTDFKLDPGQGAGIDLANPGVTDIECYLNSFTYFPSDHRVLLSGKFSEYGWDKLPVNNITIATNEVASYYKTVALPSKKNNTSINCKIPVFNGGTLEAPVRTFITSNEKVVAVGNITNYCRINTEKSYAESMVLDYSKVASVLRMSRTGELDDSYRRDAEGVIGQILDACMVESDGIVIVGTFSSFDGQSVKNIVKLNAEGTLDETFMKNIGTGANGSITKIRYNKNKKKILITGEFSEFNGIPAQSVVMLNDDGTRDEIFKIGKMEGGLANFACLLDNDNIVVSGAFTKYDGVTRRGFLILGRDGKALQQFNVPGIFQGELYKVIETRTSTNSNGLLLLGDFSRFDGNMVRNAIMIEVDYE”, the “soluble on expression in E. coli” value is reported as “not soluble”.
For “MKKATCLTDDQRWQSVLARDPNADGEFVFAVRTTGIFCRPSCRARHALRENVSFYANASEALAAGFRPCKRCQPDKANPRQHRLDKITHACR”, the “soluble on expression in E. coli” value was “soluble”.
For “MSEIKLNYHKTHFLTSAPNIRSIPEDTGIEIAFAGRSNAGKSTALNALTNQKNLARTSKTPGRTQLINLFEVEPNCKLVDLPGYGYAAVPEQMKIQWQKSLGEYLQKRECLAGLVVLMDIRHPLKDLDQQMIEWAVSANLPVLLLLTKADKLSQSARSKQVKMVREAILPFQGDIQVEAFSAQNKIGIDKLAVKLDFWFSPLFAE”, the “soluble on expression in E. coli” value was “not soluble”.
In the case of “MPFPFSRLFSFGVEHETGYVSRQSGRGRVYKGGGYSPFTITFQVSTHRSTMSDVTVAETPAVKTPTKAPKAPKSKTTKEPKAKVAAAHPPFINMVTAAISSLKERKGSSKIAILKYITANYKVGDQLTKINSRLRAALNKGVASKALVQSVGNGASGRFRVAEKAAATKKPVAKKPVAKKAATGEKKAKKTTVAKKTGDKVKKAKSPKKIAKPAAKKVAKSPAKKAAPKKAPAKKAAAPKA”, the “soluble on expression in E. coli” value is reported as “not soluble”.
For “MSLAAEGKAIAKVNDLVIFVPYVVPGDVVDLQIKRKKNKYAEAEAVKFHELSPVRAVPFCQHYGVCGGCKWQVLPYSEQIRYKQKQVEDNLRRIGKIELPEISPILGSAKTEFYRNKLEFTFSNKRWLTNDEVRQDVKYDQMNAVGFHIPGAFDKVLAIEKCWLQDDISNRIRNAVRDYAYEHDYSFINLRTQEGMLRNLIIRTSSTGELMVIVICKITEDHEMELFKQLLQFIADSFPEITSLLYIINNKCNDTINDLDVHVFKGKDHMFEEMEGLRFKVGPKSFYQTNSEQAYNLYKIAREFAGLTGKELVYDLYTGTGTIANFVSRQARQVIGIEYVPEAIEDAKVNAEINEIKNALFYAGDMKDMLTQEFINQHGRPDVIITDPPRAGMHQDVVDVILFAEPKRIVYVSCNPATQARDLQLLDGKYKVKAVQPVDMFPHTHHVENVVLLELREGHHHHHH”, the “soluble on expression in E. coli” value was “soluble”.
With “MATYLIGDVHGCYDELIALLHKVEFTPGKDTLWLTGDLVARGPGSLDVLRYVKSLGDSVRLVLGNHDLHLLAVFAGISRNKPKDRLTPLLEAPDADELLNWLRRQPLLQIDEEKKLVMAHAGITPQWDLQTAKECARDVEAVLSSDSYPFFLDAMYGDMPNNWSPELRGLGRLRFITNAFTRMRFCFPNGQLDMYSKESPEEAPAPLKPWFAIPGPVAEEYSIAFGHWASLEGKGTPEGIYALDTGCCWGGSLTCLRWEDKQYFVQPSNRHKDLGEGEAVAS” the “soluble on expression in E. coli” value was “soluble”.
For “MGSDKIHHHHHHMYPFVDRKEELKALKERLTRENFELIVIYGRRRVGKTRLVLEAVRDLPHVYYLAVEGNNLRHFRETAERVFPEVRYSREDWEGTLHALKGKIIVIDEFPNLIKENPRVLSLFQRVIDLDLSNSNTKMILLGSSVSMMTEKVLSYKSPLYGRRTGSMKLKPMGFFSLRVFFPTASWEELVEIYGMTDGIPFYITQVKLPFWEWLEEELSSPVSFFRDEVDFLLKYEFSEVSTYKRILEAIALGKTTPKEIRDFTGLRHSDISPYLRNLIEADLIVREVPVTEKGTSKRGRYYIADNFLAFWFRFIFPNLSRIEEGTFSVEEIRDSYDHYLGLVFEKVARQFLVKLNKAGNLPFKFTKIGRWWHKNEEIDLVALNEREKRALFVEVKWKSLSGREARGILWDLERKSELVGLEGWEKHYGLVAKEIRNKNALKSEGWLVWDLGDFERLISPGEISYL”, the “soluble on expression in E. coli” value was “not soluble”.
